Test results as given in paper PMC3531487, “An Allele of an Ancestral Transcription Factor Dependent on a Horizontally Acquired Gene Product” (PLoS Genetics, 2012).
Changes are numbered by the printed parent chain.

B1: phosphorylated PmrA (G211) protein from S. enterica serovar Typhimurium (natural protein)
chain: MKILIVEDDTLLLQGLILAAQTEGYACDGVSTARAAEHSLESGHYSLMVLDLGLPDEDGLHFLTRIRQKKYTLPVLILTARDTLNDRITGLDVGADDYLVKPFALEELHARIRALLRRHNNQGESELTVGNLTLNIGRHQAWRDGQELTLTPKEYALLSRLMLKAGSPVHREILYNDIYNWDNEPSTNTLEVHIHNLRDKVGKSRIRTVRGFGYMLVATEES
modifications: phosphorylated (PmrA-P; phospho-Asp, residue number not given)
notes: PmrA, response regulator of the PmrA/PmrB two-component system, S. enterica serovar Typhimurium 14028s; glycine at position 211; In gel filtration a mixture of monomer and dimer; probably the whole 222-residue protein; also called PmrA-P; PmrA-H6
B2: phosphorylated PmrA (E211) protein from S. enterica serovar Paratyphi B (natural protein)
chain: B1 chain with G211E
modifications: phosphorylated (PmrA-P; phospho-Asp, residue number not given)
notes: PmrA, response regulator of the PmrA/PmrB two-component system, natural allele of S. enterica serovar Paratyphi B (SPV) SARA46; differs from the S. typhimurium PmrA by a single amino acid, glutamate instead of glycine at position 211; also called PmrA-H6

Biological target: the molecule itself
Experiment: SEC; analytical gel filtration; PmrA (50 µM) phosphorylated with pGEX-PmrBc T156R beads, 100 µl applied individually to Superdex 200 10/300 GL at 4°C in 1× TBS/1 mM MgCl2/1 mM DTT/10% glycerol, 0.5 ml/min, A280; monomer to dimer

Protein	Dimer: Monomer (ratio of peak heights, A280)	stoichiometry N
B1	0.29	2
B2	0.11	2
